Measurements reported in patent publication US8053186.

Experiments:
[1] = biological target: All1/Af9 fusion protein (endogenous, PER377 cells with t(9;11)), Q03164
[2] = biological target: All1/Af4 fusion protein (endogenous, SEMK2 cells with t(4;11)), Q03164
All1/Af4 fusion protein (endogenous, SEMK2 cells with t(4;11)), Q03164, sequence (Q03164 other isoform, or with tags, fused parts or gaps): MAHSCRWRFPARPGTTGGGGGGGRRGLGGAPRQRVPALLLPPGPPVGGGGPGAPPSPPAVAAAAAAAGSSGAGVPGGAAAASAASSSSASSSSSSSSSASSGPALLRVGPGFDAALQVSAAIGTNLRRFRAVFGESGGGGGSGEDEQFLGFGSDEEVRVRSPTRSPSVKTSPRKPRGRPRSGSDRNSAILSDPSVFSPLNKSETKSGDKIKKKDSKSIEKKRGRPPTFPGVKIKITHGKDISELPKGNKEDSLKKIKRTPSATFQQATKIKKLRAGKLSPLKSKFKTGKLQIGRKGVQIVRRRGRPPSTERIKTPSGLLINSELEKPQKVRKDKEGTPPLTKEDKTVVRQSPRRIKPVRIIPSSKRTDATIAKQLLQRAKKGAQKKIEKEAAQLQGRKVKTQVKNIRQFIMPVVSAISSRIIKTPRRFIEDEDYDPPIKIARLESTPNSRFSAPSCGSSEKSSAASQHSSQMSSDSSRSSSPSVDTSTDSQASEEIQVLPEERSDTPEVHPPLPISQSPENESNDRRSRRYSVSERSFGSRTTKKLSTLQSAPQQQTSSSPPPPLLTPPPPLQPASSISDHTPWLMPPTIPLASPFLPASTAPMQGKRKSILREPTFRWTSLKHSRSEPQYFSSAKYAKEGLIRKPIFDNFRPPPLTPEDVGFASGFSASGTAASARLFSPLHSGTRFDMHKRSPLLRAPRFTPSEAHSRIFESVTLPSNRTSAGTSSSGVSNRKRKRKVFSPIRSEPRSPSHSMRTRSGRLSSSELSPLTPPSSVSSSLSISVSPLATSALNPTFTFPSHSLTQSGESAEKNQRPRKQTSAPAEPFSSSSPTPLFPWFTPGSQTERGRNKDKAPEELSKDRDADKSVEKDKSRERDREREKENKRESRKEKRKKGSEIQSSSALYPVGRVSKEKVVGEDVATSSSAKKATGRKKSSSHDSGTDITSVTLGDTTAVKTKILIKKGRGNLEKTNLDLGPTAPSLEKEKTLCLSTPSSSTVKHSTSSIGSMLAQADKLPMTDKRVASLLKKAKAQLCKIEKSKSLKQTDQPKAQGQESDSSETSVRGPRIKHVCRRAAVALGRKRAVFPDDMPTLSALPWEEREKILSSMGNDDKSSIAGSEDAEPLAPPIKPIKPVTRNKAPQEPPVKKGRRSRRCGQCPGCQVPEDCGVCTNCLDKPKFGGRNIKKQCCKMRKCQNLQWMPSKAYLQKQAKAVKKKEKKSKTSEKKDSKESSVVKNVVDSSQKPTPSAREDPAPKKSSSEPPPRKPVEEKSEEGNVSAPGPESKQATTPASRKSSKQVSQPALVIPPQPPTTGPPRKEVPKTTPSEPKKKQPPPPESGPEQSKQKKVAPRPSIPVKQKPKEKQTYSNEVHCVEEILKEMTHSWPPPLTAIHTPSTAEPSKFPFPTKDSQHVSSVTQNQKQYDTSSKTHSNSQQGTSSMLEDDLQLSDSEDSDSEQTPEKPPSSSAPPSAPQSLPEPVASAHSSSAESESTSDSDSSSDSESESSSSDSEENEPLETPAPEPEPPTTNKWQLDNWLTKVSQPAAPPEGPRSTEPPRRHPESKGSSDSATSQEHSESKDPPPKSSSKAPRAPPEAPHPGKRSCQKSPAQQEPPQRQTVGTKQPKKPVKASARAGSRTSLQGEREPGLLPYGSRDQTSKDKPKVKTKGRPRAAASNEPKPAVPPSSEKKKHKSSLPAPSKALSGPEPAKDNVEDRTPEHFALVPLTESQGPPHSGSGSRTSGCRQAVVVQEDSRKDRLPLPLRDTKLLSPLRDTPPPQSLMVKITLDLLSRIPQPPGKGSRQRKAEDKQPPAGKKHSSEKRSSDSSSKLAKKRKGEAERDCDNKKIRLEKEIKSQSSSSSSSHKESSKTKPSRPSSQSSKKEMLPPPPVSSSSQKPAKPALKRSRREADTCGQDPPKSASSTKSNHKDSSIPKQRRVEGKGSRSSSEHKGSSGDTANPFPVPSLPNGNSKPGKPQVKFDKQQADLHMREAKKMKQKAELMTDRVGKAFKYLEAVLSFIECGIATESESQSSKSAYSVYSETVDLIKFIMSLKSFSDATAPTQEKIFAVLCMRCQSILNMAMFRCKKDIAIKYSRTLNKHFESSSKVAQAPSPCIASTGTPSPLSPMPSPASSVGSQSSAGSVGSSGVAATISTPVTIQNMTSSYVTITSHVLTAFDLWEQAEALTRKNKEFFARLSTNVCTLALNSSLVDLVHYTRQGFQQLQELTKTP

All1/Af9 fusion protein (endogenous, PER377 cells with t(9;11)), Q03164, sequence (Q03164 other isoform, or with tags, fused parts or gaps): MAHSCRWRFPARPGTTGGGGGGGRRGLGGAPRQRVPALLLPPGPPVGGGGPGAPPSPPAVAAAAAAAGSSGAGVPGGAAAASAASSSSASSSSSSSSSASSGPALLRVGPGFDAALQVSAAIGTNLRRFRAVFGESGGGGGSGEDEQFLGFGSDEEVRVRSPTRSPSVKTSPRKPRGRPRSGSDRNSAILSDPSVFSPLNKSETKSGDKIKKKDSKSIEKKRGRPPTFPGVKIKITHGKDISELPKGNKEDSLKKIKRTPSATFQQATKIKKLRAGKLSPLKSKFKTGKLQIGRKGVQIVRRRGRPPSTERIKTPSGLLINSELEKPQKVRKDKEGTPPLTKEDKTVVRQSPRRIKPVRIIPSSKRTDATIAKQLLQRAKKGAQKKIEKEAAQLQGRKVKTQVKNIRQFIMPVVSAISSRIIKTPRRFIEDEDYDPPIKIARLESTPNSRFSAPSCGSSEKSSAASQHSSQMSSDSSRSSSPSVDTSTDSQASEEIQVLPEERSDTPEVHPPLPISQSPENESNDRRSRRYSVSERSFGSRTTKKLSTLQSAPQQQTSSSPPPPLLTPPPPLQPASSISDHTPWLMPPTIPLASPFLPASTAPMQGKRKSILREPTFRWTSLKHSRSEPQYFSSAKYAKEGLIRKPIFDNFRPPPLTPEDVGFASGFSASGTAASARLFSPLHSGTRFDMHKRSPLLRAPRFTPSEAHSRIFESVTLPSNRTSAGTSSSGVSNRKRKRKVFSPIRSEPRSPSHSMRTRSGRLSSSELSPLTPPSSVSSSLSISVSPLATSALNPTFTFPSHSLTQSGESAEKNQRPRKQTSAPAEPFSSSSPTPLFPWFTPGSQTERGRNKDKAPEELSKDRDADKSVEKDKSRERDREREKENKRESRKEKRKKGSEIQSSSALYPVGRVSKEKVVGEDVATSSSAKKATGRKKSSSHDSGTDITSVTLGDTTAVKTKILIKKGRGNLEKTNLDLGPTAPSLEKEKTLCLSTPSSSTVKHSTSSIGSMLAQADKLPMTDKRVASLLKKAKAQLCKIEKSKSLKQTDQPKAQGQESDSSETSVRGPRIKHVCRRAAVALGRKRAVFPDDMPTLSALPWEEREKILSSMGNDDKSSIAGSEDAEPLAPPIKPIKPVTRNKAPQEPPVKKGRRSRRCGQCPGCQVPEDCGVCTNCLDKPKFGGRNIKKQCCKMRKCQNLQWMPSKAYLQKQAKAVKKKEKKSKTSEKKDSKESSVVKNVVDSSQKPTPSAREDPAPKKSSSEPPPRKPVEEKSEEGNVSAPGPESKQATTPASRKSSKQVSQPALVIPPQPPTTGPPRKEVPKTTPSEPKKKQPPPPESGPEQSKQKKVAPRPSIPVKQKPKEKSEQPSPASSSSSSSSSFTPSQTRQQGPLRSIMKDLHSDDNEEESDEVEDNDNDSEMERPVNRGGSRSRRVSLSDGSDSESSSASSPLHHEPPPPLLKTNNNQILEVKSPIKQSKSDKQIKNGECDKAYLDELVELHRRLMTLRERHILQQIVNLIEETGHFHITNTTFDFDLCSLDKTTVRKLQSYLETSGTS

B1: Drosha (endogenous, immunoprecipitated from SEMK2 or PER377 nuclear extracts) (protein)
chain: MMQGNTCHRMSFHPGRGCPRGRGGHGARPSAPSFRPQNLRLLHPQQPPVQYQYEPPSAPSTTFSNSPAPNFLPPRPDFVPFPPPMPPSAQGPLPPCPIRPPFPNHQMRHPFPVPPCFPPMPPPMPCPNNPPVPGAPPGQGTFPFMMPPPSMPHPPPPPVMPQQVNYQYPPGYSHHNFPPPSFNSFQNNPSSFLPSANNSSSPHFRHLPPYPLPKAPSERRSPERLKHYDDHRHRDHSHGRGERHRSLDRRERGRSPDRRRQDSRYRSDYDRGRTPSRHRSYERSRERERERHRHRDNRRSPSLERSYKKEYKRSGRSYGLSVVPEPAGCTPELPGEIIKNTDSWAPPLEIVNHRSPSREKKRARWEEEKDRWSDNQSSGKDKNYTSIKEKEPEETMPDKNEEEEEELLKPVWIRCTHSENYYSSDPMDQVGDSTVVGTSRLRDLYDKFEEELGSRQEKAKAARPPWEPPKTKLDEDLESSSESECESDEDSTCSSSSDSEVFDVIAEIKRKKAHPDRLHDELWYNDPGQMNDGPLCKCSAKARRTGIRHSIYPGEEAIKPCRPMTNNAGRLFHYRITVSPPTNFLTDRPTVIEYDDHEYIFEGFSMFAHAPLTNIPLCKVIRFNIDYTIHFIEEMMPENFCVKGLELFSLFLFRDILELYDWNLKGPLFEDSPPCCPRFHFMPRFVRFLPDGGKEVLSMHQILLYLLRCSKALVPEEEIANMLQWEELEWQKYAEECKGMIVTNPGTKPSSVRIDQLDREQFNPDVITFPIIVHFGIRPAQLSYAGDPQYQKLWKSYVKLRHLLANSPKVKQTDKQKLAQREEALQKIRQKNTMRREVTVELSSQGFWKTGIRSDVCQHAMMLPVLTHHIRYHQCLMHLDKLIGYTFQDRCLLQLAMTHPSHHLNFGMNPDHARNSLSNCGIRQPKYGDRKVHHMHMRKKGINTLINIMSRLGQDDPTPSRINHNERLEFLGDAVVEFLTSVHLYYLFPSLEEGGLATYRTAIVQNQHLAMLAKKLELDRFMLYAHGPDLCRESDLRHAMANCFEALIGAVYLEGSLEEAKQLFGRLLFNDPDLREVWLNYPLHPLQLQEPNTDRQLIETSPVLQKLTEFEEAIGVIFTHVRLLARAFTLRTVGFNHLTLGHNQRMEFLGDSIMQLVATEYLFIHFPDHHEGHLTLLRSSLVNNRTQAKVAEELGMQEYAITNDKTKRPVALRTKTLADLLESFIAALYIDKDLEYVHTFMNVCFFPRLKEFILNQDWNDPKSQLQQCCLTLRTEGKEPDIPLYKTLQTVGPSHARTYTVAVYFKGERIGCGKGPSIQQAEMGAAMDALEKYNFPQMAHQKRFIERKYRQELKEMRWEREHQEREPDETEDIKK
in vitro cleavage of miR-191 and miR-155 probes by immuno-purified Drosha [1]: Drosha containing All1/Af9 had less processing activity, similar to that of the Drosha:FLAG preparation | in vitro cleavage of miR-191 and miR-155 probes by immuno-purified Drosha [2]: Drosha containing All1/Af4 exhibited the strongest processing activity
